Test results: the supplement of paper PMC10724198
± gives the standard deviation of the averaged measurements.

What was measured:
[1] = test system: Saccharomyces cerevisiae; assay: protein stability index of tFT-peptide fusion (C-terminal peptide) (PSI (0-1 scale)); higher = more stable (slower turnover)
Method: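 MPS profiling in S. cerevisiae of the tFT-X12 degron library: putative degron peptides plus stable controls, 12 aa, fused to the C-terminus of a sfGFP-mCherry timer. Cells are FACS-sorted into 8 mCherry/sfGFP bins and deep-sequenced. PSI runs from 0 (unstable) to 1 (stable). Backgrounds are wild type, das1Δ and doa10Δ at 30 °C, and wild type, das1Δ, cdc34-1 and cdc53-1 at 37 °C; 2-3 technical replicates each.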

[2] = test system: Saccharomyces cerevisiae; assay: as above; conditions: genetic background: wild type; temperature: 30 C
[3] = genetic background: cdc34-1, temperature: 37 C
[4] = genetic background: cdc53-1, temperature: 37 C
[5] = genetic background: das1 deletion, temperature: 30 C
[6] = genetic background: das1 deletion, temperature: 37 C
[7] = genetic background: doa10 deletion, temperature: 30 C
[8] = genetic background: wild type, temperature: 30 C
[9] = genetic background: wild type, temperature: 37 C
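Also: PSI is a weighted mean of sequencing reads over stability bins, variants kept only with over 10 reads, mCherry proximal and sfGFP distal, peptide attached via GGGS linker.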

| Sequence | protein stability index [1, 3] | protein stability index [1, 4] | protein stability index [1, 5] | protein stability index [1, 6] | protein stability index [1, 7] | protein stability index [1, 8] | protein stability index [1, 9] | protein stability index [2] |
| --- | --- | --- | --- | --- | --- | --- | --- | --- |
| CFFPFLCFVVGA | 0.482 ± 0.021 | 0.492 ± 0.023 | 0.358 ± 0.025 | 0.514 ± 0.0085 | 0.3205 ± 0.0017 | 0.346 ± 0.013 | 0.49 ± 0.0059 | 0.445 ± 0.017 |
| FFFSFSFPFLSF | 0.462 ± 0.014 | 0.481 ± 0.027 | 0.464 ± 0.023 | 0.559 ± 0.0068 | 0.55 ± 0.022 | 0.477 ± 0.018 | 0.555 ± 0.031 | 0.518 ± 0.034 |
| QILVSYSFLYFF | 0.5506 ± 0.0046 | 0.592 ± 0.041 | 0.44 ± 0.03 | 0.609 ± 0.023 | 0.3549 ± 0.0034 | 0.38 ± 0.017 | 0.539 ± 0.0058 | 0.509 ± 0.1 |
| RVTEYHTKYKIV | 0.487 ± 0.13 | 0.673 ± 0.076 | 0.656 ± 0.025 | 0.728 ± 0.077 | 0.0697 ± 0.0072 | 0.0674 ± 0.021 | 0.0807 ± 0.021 | 0.153 ± 0.012 |
| LSLFPFLPSPCP | 0.736 ± 0.03 | 0.777 ± 0.0099 | 0.671 ± 0.009 | 0.752 ± 0.035 | 0.674 ± 0.036 | 0.669 ± 0.021 | 0.744 ± 0.018 | 0.748 ± 0.07 |
| CPICDFLFLALF | 0.565 ± 0.021 | 0.599 ± 0.064 | 0.483 ± 0.037 | 0.651 ± 0.022 | 0.469 ± 0.023 | 0.424 ± 0.028 | 0.598 ± 0.03 | 0.424 ± 0.054 |
| CLFFFFFHLPIF | 0.445 ± 0.022 | 0.508 ± 0.016 | 0.425 ± 0.026 | 0.533 ± 0.033 | 0.4011 ± 0.00062 | 0.389 ± 0.023 | 0.476 ± 0.021 | 0.472 ± 0.032 |
| CMPVYYTVVIRL | 0.177 ± 0.052 | 0.102 ± 0.028 | 0.204 ± 0.029 | 0.294 ± 0.015 | 0.246 ± 0.021 | 0.159 ± 0.024 | 0.31 ± 0.021 | 0.296 ± 0.021 |
| SNFQLLPLFKNI | 0.791 ± 0.12 | 0.789 ± 0.0083 | 0.651 ± 0.044 | 0.799 ± 0.027 | 0.182 ± 0.0062 | 0.216 ± 0.041 | 0.546 ± 0.056 | 0.39 ± 0.032 |
| RLCLLLCCRLWL | 0.53 ± 0.023 | 0.58 ± 0.013 | 0.442 ± 0.022 | 0.565 ± 0.012 | 0.461 ± 0.022 | 0.428 ± 0.011 | 0.55 ± 0.01 | 0.4961 ± 0.0041 |
| WQVPYQRLAILF | 0.603 ± 0.021 | 0.656 ± 0.017 | 0.555 ± 0.03 | 0.681 ± 0.016 | 0.215 ± 0.017 | 0.247 ± 0.02 | 0.346 ± 0.011 | 0.309 ± 0.017 |
| LAGVVWVVWCVG | 0.17 ± 0.013 | 0.21 ± 0.0091 | 0.195 ± 0.031 | 0.385 ± 0.0088 | 0.1814 ± 0.00077 | 0.198 ± 0.03 | 0.367 ± 0.039 | 0.314 ± 0.06 |
| GGRLGRAGGGGR | 0.633 ± 0.026 | 0.7243 ± 0.0029 | 0.642 ± 0.024 | 0.7168 ± 0.00089 | 0.66 ± 0.026 | 0.6472 ± 0.0025 | 0.68996 ± 0.00034 | 0.639 ± 0.22 |
| WFAHGLRHFRIL | 0.653 ± 0.081 | 0.76058 ± 0.00075 | 0.661 ± 0.0098 | 0.742 ± 0.027 | 0.273 ± 0.016 | 0.299 ± 0.012 | 0.532 ± 0.034 | 0.375 ± 0.068 |
| SMFFLFFFFFFF | 0.396 ± 0.0071 | 0.356 ± 0.018 | 0.35 ± 0.042 | 0.444 ± 0.034 | 0.432 ± 0.028 | 0.328 ± 0.017 | 0.4177 ± 0.0027 | 0.36 ± 0.04 |
